In data set [1] the test system is pancreatic islets and β-cells. As to the kind of experiment: Follow-up of healthy offspring with gestational exposure to anti-serpinB13 mAb. Format: in vivo, mouse. Particulars: for β-cell mass per animal (islet mass): offspring. As to the method: The control mouse mAb (clone TIB92) was from ATCC (Manassas, VA, USA). The recombinant human control Ab (cat. No 403502) was from BioLegend (San Diego, CA). In most of the experiments, anti-serpinB13 mAb (clone B29) or control mouse mAb was injected i.p. into pregnant female mice at 50 μg for four consecutive days, starting at gestational day E10.5 (total dose of 200 μg). In the lineage tracing experiments in adult mice, B29 was injected i.p. for 7 days at 100 μg/injection during the first week after STZ treatment (total dose of 700 μg).
Preparation of the islets and single islet-cell suspensions. The adult pancreases were subjected to digestion with collagenase P and passed through the 100-μm strainers to separate the islets from debris. The blindly digested pancreatic samples were manually counted for the number of pancreatic islets under a dissecting microscope with a warm halogen light from below. The islets were defined as any visible, distinct cluster of cells with smooth edges and light- to dark-brown glowing color and diameter greater than 100 μm. The hand-picked islets were then dispersed with CellStripper (cat. no. 25-056-CI; Corning, Corning, NY). The cells were fixed and permeabilized, using the Foxp3/Transcription Factor Staining Buffer Set to permit intracellular staining.
Calculation of the islet mass. In embryos, the β-cell mass was expressed as the percentage of the area of all pancreatic sections combined, that positively stained with anti-insulin antibody. To calculate β-cell mass in adult mice, the percentage insulin-positive area was multiplied by the pancreas weight expressed in milligrams.
Estimating the number of islets and islet cells. The islets were manually counted under a dissecting microscope. To estimate the number of α and β cells, the islet cells were dispersed, intracellularly stained with antibodies to […], respectively, and their counts measured by FACS.

The subject of data set [2] is catL. Particulars: previously shown by the applicant; cited from earlier work.
The test system of data set [3] is Notch1 receptor. Briefly: Examination of Notch1 receptor in embryonic pancreas (Western blot, flow cytometry, qPCR). The conditions noted are these: for levels of active Notch intracellular domain (aNICD): embryonic pancreas, antibody vs control Ab. The data set is classed as cell-based, mouse. As to the method:
Staining for flow cytometry. BD LSRFortessa X-20, LSR-II and FACSCanto-II were used for FACS analysis. Positive populations of cells were gated and counted using FlowJo ver.10 software. For the islet cells isolated from adult mice, intracellular staining to detect glucagon and insulin was used to count single-positive as well as double-negative cells. In the cells isolated from embryonic pancreas explants, intracellular staining was performed to detect Ngn3, CK19, and active Notch, and extracellular staining was used to detect the extracellular Notch domain, EpCAM, CD31 and CD45.
Western blotting. Pancreatic tissues were processed from E16.5 embryos as single samples and directly used for lysis. Embryonic pancreas explants from E12.5 embryos were cultured in vitro with anti-serpinB13 mAb (or control Ab) for 24 or 48 hours, then, three explant cultures were combined and lysed. The samples were washed two times in ice-cold PBS and lysed with gentle pipetting for 10 minutes with additional tap-vortexing for 15 minutes in RIPA buffer containing Halt protease inhibitors (cat. no. 1862209, Thermo Fisher Scientific). Equal amounts of protein in each sample were run under reducing conditions on Bis-Tris BOLT gradient gel (4-12%) or NUPAGE Tris-acetate gradient gels (4-12%) (both from Thermo Fisher Scientific), and transferred onto […] nitrocellulose or activated PVDF membranes. The membranes were blocked with 5% skim milk and stained with primary and secondary antibodies, as indicated. The Western blots were developed with SuperSignal West Pico Chemiluminescent Substrate or West Femto Maximum Sensitivity Substrate (cat. nos. […] and […], respectively; both from Thermo Scientific), and scanned using the ChemiDoc™ MP Imaging System (Bio-Rad, Hercules, […], USA).
Quantitative real-time PCR. Total RNA from embryonic pancreases was extracted using the RNeasy UCP Micro kit (cat. no. 73934; Qiagen, Hilden, Germany) to measure expression of the Notch1 gene. One hundred to […] of the total RNA per group was reverse transcribed to cDNA using the iScript cDNA Synthesis Kit (cat. no. 1708891; Bio-Rad). Quantitative PCR assays were performed on an Applied Biosystems QuantStudio 3 real-time PCR system using cDNA and the Kapa Sybr Fast reagent (cat. no. 0795959100; Roche). Actin-R was used as a reference gene. The primer sequence for Notch1 was as follows: forward—5′[…]3′ and reverse—5′ […]3′.

Data set [4] relates to Ngn3+ cells. Briefly: Genetic lineage tracing of Ngn3+ cells. The data set is classed as in vivo, mouse. As to the method: FIGS. 18A-18C. Genetic tracing of Ngn3^+ cells in the pancreas of healthy and diabetic adult mice treated with anti-serpinB13 mAb. (A) The protocol of mice treatment with streptozotocin (STZ), tamoxifen (TAM), and anti-serpinB13 mAb (or control Ab). Eight-week old Ngn3Cre^ERTR26^YFP mice were induced into diabetes with STZ (150 mg/kg) and genetically labelled with YFP to mark Ngn3^+ cells, using TAM one day after injection of STZ, and an additional three times every other day thereafter. The antibodies were injected every day for 7 days at 100 μg/injection during the first week after STZ treatment. (B) Quantitative analysis by IF microscopy of YFP^+ cells expressing insulin at two weeks following induction of diabetes with STZ. […] (C) Representative microscopic IF images of YFP^+insulin^+ cells depicted in (B). Data are presented as the mean±SEM. Ordinary one-way ANOVA with Sidak test. Scale bars, 10 μm. NS, not significant. αB13, anti-serpinB13 mouse mAb.
Linage tracing. In the developmental studies, the Rosa26^EYFP females were initially set up for overnight breeding with NgnCre^ERT males and the following morning examined for the presence of a vaginal plug to indicate embryonic day E0.5. On embryonic day E10.5, E11.5, E12.5 and 13.5, anti-serpinB13 mAb (or control Ab) was injected i.p. at a dose of 50 μg per animal per day (total dose of 200 μg). […]

[5] abbreviates: 8-week old offspring, prenatal exposure.

The values that follow come from patent US12441811B2, “Compositions and methods for treating serpin B13 disorders” (REGENTS OF THE UNIVERSITY OF MINNESOTA, priority 2019, dated 2025).

“Also recorded” adds a separate entry of the source.

B1: B29: mouse monoclonal antibody to serpin B13, clone B29; heavy chain SEQ ID NO:14, kappa light chain SEQ ID NO:16 (antibody, V domains shown)
VH: QIQLVQSGPELKKPGETVKISCKASGYTFTTYGMSWVKQAPGKGLKWMGWINTYSGMPTYADDFKGRFAFSLETSATTAYLQINNLKNEDTATYFCARPLLGLDYWGQGTTLTVSS
VL: DIVMTQTPLSLSVTIGQPASISCKSSQSLLHSDGKTFLNWFLQRPGQSPKLLIYLVSKLESGIPDRFSGSGSGTDFTLKISRVEVEDLGVYYCLQHTHFPLTFGAGTKLEIK
With B1, the “number of pancreatic islets” value in data set [1] (setting [5]) is given as “significant increase”. The “total β-cell number” value in data set [1] (setting [5]) was “significant increase”. For the same molecule, the α-cell population entry in data set [1] (setting [5]) is “significantly increased”. Further, the “total pancreas and body weight” value in data set [1] (at birth and in adulthood, vs control group) is reported as “remained the same”. Also, the “β-cell mass per animal (islet mass)” value in data set [1] (prenatal exposure, listed as anti-serpinB13 antibody) was “increased”; in data set [1] (prenatal exposure, listed as anti-serpinB13 mAb), “significant increase”; in data set [1] (prenatal exposure, listed as mAb), “significant expansion”. For the same molecule, the “inhibitory properties of serpinB13” value in data set [2] is “blocked”. Moreover, in data set [3] (E12.5 explants treated 48 hours), the “~60 kD degradation fragments of Notch1” value is “induction”. Further, the results for the “levels of active Notch intracellular domain (aNICD)” value in data set [3] and in data set [3] (listed as mAb) were “diminished” and “markedly reduced levels”, respectively. Moreover, the “expression of the ectodomain of the Notch1 receptor” value in data set [3] (embryonic pancreatic tissue, in vivo and in vitro exposure, 24 and 48 hours) is given as “time-dependent reduced expression”. In addition, in data set [3] (quantitative PCR), the “transcriptional level of Notch1” value is “relatively intact”. The “transition from Ngn3 to insulin expression (YFP+insulin+ cells)” value in data set [4] (adult mice with STZ-induced pancreatic damage, 100 μg/injection for 7 days, listed as anti-serpinB13 mAb) is on record as “also observed; also recorded: increase”. Also, the “conversion of Ngn3+ cells to insulin-positive status” value in data set [4] (injection during gestation, YFP+insulin+ cells in embryos) was “enhanced conversion”.
